Data reported in paper PMC7431086, “Molecular basis of the selective processing of short mRNA substrates by the DcpS mRNA decapping enzyme” (Proceedings of the National Academy of Sciences of the …, 2020).

Target: the molecule itself
Test: crystal structure; DcpS (8-350, H268N) in 1:1 complex with m7GpppGU RNA, 5 mg/mL, 10 mM Hepes pH 7.5, 100 mM NaCl, 1.6 M NH4SO4; space group P212121, two dimers per asymmetric unit; 2.9 A

B1: DcpS from S. cerevisiae (residues 8-350; H268N) (enzyme, UniProt Q06151 8-350, looked up)
chain: FASLIKRFQFVSVLDSNPQTKVMSLLGTIDNKDAIITAEKTHFLFDETVRRPSQDGRSTPVLYNCENEYSCINGIQELKEITSNDIYYWGLSVIKQDMESNPTAKLNLIWPATPIHIKKYEQQNFHLVRETPEMYKRIVQPYIEEMCNNGRLKWVNNILYEGAESERVVYKDFSEENKDDGFLILPDMKWDGMNLDSLYLVAIVYRTDIKTIRDLRYSDRQWLINLNNKIRSIVPGCYNYAVHPDELRILVHYQPSYYHFNIHIVNIKHPGLGNSIAAGKAILLEDIIEMLNYLGPEGYMNKTITYAIGENHDLWKRGLEEELTKQLERDGIPKIPKIVNGFK
notes: Crystallised as a 1:1 complex with the capped dinucleotide m7GpppGU; also called Dcs1p; Scavenger Decapping Enzyme
Question: Does B1 bind?
Answer: binds
